Assay results from patent US12527862B2, “Bactericidal/permeability increasing protein for use in a method of immunization, preferably as an adjuvant in a method of vaccination” (UNIVERSITÄT REGENSBURG, priority 2018, dated 2026).

Tests used:
[1] = tested on: co-culture of lymphnode cells (LNCs) and dendritic cells (DCs); test: Co-culture of lymph node cells and BMDCs, cytokine secretion; type: cell-based, C57BL/6J mice; conditions: BPI 200 nM, n=5 (FIG. 12)
Method: All methods mentioned in this example were carried out as described in the preceding examples. Peripheral lymph nodes of C57BL/6J mice were collected to obtain lymph node cells. The cells were isolated by pressing the lymph nodes through a […] cell strainer, flushing the homogenate with either RPMI-VLE or PBS, and collecting the cell dispersion in a 50 ml falcon tube. The suspension was centrifuged (300×g, 21° C., 8 min) and the cell pellet was resuspended in 2 to 5 ml of cell culture medium (VLE-RPMI 1640 medium containing glutamine supplemented with 10% heat-inactivated FCS, 10% penicillin-streptomycin and 50 μM sterile-filtered β-Mercaptoethanol). After this procedure the cell suspension was washed once or twice in cell culture medium or PBS by centrifugation (300×g, 21° C., 8 min). BMDCs were seeded and co-cultured with a threefold excess of peripheral lymph node cells in the presence or absence of BPI (200 nM) in in cell culture medium. Supernatans were collected and measured as described in preceding examples.

naïve CD4+ T cells = test: T cell activation assay with naïve CD4+ T cells and dendritic cell-derived supernatant; type: cell-based, C57BL/6J mice; conditions: DC supernatant after BPI 200 nM ± ODN 1826 20 nM, aCD3 and aCD28, day five, Luminex, n=3 (FIG. 13A-C)
Method: Naive CD4+CD25-CD44-CD62L+ T cells were isolated from peripheral lymph nodes and spleen of C57BL/6J mice and purified by MACS and FACS. Naïve CD4+ T cells were cultured in the presence of aCD3 and aCD28 antibodies and dendritic cell-derived supernatant after stimulation with BPI (SN BPI, BPI 200 nM) or after stimulation with ODN 1826 (SN CpG, ODN 1826 20 nM) or after stimulation with BPI and ODN 1826 (SN BPI+CpG, BPI 200 nM, ODN 1826 20 nM) or supernatant without addition of BPI or ODN 1826 (SN NT). On day five, cytokine levels were measured by Luminex. • A. Th1 differentiation as shown by detection of IFNγ (n=3). • B. Th17 differentiation as shown by detection of IL-17 (n=3). • C. […] Lymph node cells were stimulated with aCD3 and aCD28 antibodies and SN BPI or SN NT and incubated for 6h before adding a protein transport inhibitor cocktail and incubating for additional 16h. […]
To isolate CD4+SC and pLNC, cells isolated from spleen and peripheral lymph nodes (see 2.1.3) were sorted by magnetic cell sorting (MACS), using a CD4+ T cell isolation kit (#130-104-454, Miltenyi Biotec). […] The flow-through, containing unlabeled CD4+ cells, was collected and cell number was determined using a hemocytometer. CD4+SC and pLNC were used in experiments or labeled with fluorescent antibodies against non-naïve T cell markers for fluorescence activated cell sorting (FACS) of naïve CD4+ T cells. […]

B1: bactericidal/permeability-increasing protein (protein)
chain: RIKIPDYSDSFKIKHLGKGHYSFYSMDIREFQLPSSQISMVPNVGLKFSISNANIKISGKWKAQKRFLKMSGNFDLSIEGMSISADLKLGSNPTSGKPTITCSSCSSHINSVHVHISKSKVGWLIQLFHKKIESALRNKMNSQVCEKVTNSVSSELQPYFQTLPVMTKIDSVAGINYGLVAPPATTAETLDVQMKGEFYSENHHNPPPFAPPVMEFPAAHDRMVYLGLSDYFFNTAGLVYQEAGVLKMTLRDDMIPKESKFRLTTKFFGTFLPEVAKKFPNMKIQIHVSASTPPHLSVQPTGLTFYPAVDVQAFAVLPNSSLASLFLIGMHTTGSMEVSAESNRLVGELKLDRLLLELKHSNIGPFPVELLQDIMNYIVPILVLPRVNEKLQKGFPLPTPARVQLYNVVLQPHQNFLLFGADVVYK
modifications: labeled with NT647 (Monolith NT Protein Labeling Kit RED-NHS) in the MST experiments
notes: recombinant human BPI, aa32-487 of huBPI with N-terminal HA signal peptide, expressed in HEK293T cells
secretion of IL-4 in co-culture of LNCs and BMDCs [1]: not observed
secretion of IFNγ and IL-17 in co-culture of LNCs and BMDCs ([1]; threefold excess of lymph node cells): Significant secretion
activation and differentiation of naïve T cells into Th1, Th17 and Th22 cells (IFNγ, IL-17, IL-22) (naïve CD4+ T cells): promotes not only activation but also differentiation of naïve T cells into Th1, Th17 and Th22 cells
